Assay results as given in patent US20230279128A1 (SYNTHEKINE, published 2023).

T1: extracellular domain of hIFNgR2 (human, UniProt P38484 28-247)
T1 construct: also called hIFNgR2 ECD; hIFNgR2-ECD
T1 sequence: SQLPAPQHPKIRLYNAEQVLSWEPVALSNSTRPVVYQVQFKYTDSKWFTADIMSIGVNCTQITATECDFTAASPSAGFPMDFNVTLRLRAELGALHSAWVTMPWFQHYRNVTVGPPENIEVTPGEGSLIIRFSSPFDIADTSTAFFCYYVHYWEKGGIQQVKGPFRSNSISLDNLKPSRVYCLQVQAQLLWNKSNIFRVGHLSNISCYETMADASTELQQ

T2: extracellular domain of mIFNgR2 (mouse)
T2 construct: also called mIFNgR2 ECD; mouse IFNgR2 extracellular domain
T2 chain: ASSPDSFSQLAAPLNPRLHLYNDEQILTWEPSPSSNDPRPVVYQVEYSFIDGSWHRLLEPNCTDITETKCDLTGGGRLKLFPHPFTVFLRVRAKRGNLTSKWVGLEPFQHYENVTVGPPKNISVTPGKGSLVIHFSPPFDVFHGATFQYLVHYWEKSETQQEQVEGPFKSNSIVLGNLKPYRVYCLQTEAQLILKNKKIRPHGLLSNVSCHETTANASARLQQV

B1: DR950 (VHH)
VHH: QVQLVESGGGLVQAGGSLRLSCAASGLTTSSAALAWFRQAPGKERELDPTITSGGGSTYYADSVKGRFTISKDNAKNTLYLQMSSLKPEDTAVYYCAARFYSTTYYYREHEYSDWGQGTQVTVSS
B2: DR941 (VHH)
VHH: QVQLVESGGGLVEAGGSLRLACAASGSIFRLNLMGWYRQAPGKQRELVAHVGTTGNTAYADSVKGRFTISKDDAKNMVFLQMNSLKPEDTAVYYCYADRWGQFSWGQGTQVTVSS
B3: DR928 (VHH)
VHH: QVQLVESGGGLVQAGGSLRLSCAASGRTFSNYRMGWFRQAPGKEREFVAAISRGGGTTLYADSVKGRFTISRDNAKNTVDLQMNRLKPEDTAVYFCAAGDFSTTWDEYNYWGQGTQVTVSS
B4: DR947 (VHH)
VHH: QVQLVESGGGLVQAGGSLRLSCAASGGSFGRYTMGWYRQAPGKEREFVAVISWSGTNTYYADSVKGRFTISRDNAKNTMYLQMNDLKPEDTAVYYCAARETYYSHWDERMEYDYWGQGTQVTVSS
B5: DR948 (VHH)
VHH: QVQLVESGGGLVQAGDSLRLSCVASGSIDSSYYVSWFRQAPGKERDLVAAINWGDSRTAYADSVKGRFTISRDNAKNTVYLQMHSLRPNDTAVYYCASRIGLGGPVVAAPTRYPYWGQGTLVTVSS
B6: DR927 (VHH)
VHH: QVQLVESGGGLVQAGGSLRLSCAASGRTFTSYAMNWFRQAPGKEREFVAAISWSSGNTYVADSVKGRFAISRDKAKNTMYLQMNSLAPEDTAVYYCAATTIATMSDEYTYWGQGTQVTVSS
B7: DR936 (VHH)
VHH: EVQLVESGGGLVQAGGSLRLSCAASGRTFSSVAMAWFRQAPGKEREFVSAISSGGGSTDYADSVKGRFTISKDNAKNTMYLQMDSLKPEDTAVYYCAARDYSSRRYYQSRYEYDLWGLGTQVTVSS
B8: DR951 (VHH)
VHH: QVQLVESGGGLVQAGGSLRLSCAASGRTFGTSFGSLSMGWFRQAPGKEREFVAAISRNIGRTYYADSVKDRFTISRDNAKNTASLQMNSLEPEDTAVYNCAATNSYDDLRRSYAYDYWGQGTQVTVSS
B9: DR955 (VHH)
VHH: QVQLVESGGGLVQTGGSLRLSCAASGRTFSSYAMAWFRQAPGKEREFVAAISILGGSADYEDSVQGRFTISRDNAKNTMYLQMNSLKPEDTAVYYCAARRPAPSDSYWSSTSYAYWGQGTLVTVSS
B10: DR957 (VHH)
VHH: QVQLVESGGGLVQAGGSLRLSCAPSGRTFSSYAMAWFRQPPGKEREFVAAITVSGASTYYADSVKGRFTISRDNAKNSMYLQMNSLKPEDTAVYYCAAGGPGTIFPDYDYWGQGTQVTVSS
B11: DR956 (VHH)
VHH: EVQLVESGGGLVQAGGSLRLSCAASGRTFSSLAMAWFRQAPGKEREFVAATTILGGSADYGDPVKGRFTISRDNAKNTVYLQMNSLKPEDTAVYYCTGRRPAPSDNYWSPASYAYWGQGTQVTVSS
B12: DR946 (VHH)
VHH: QVQLVESGGGLVQPGESLRLSCAASGPFTRYAMGWFRQAPGKEREFVAAISWSSGNTYYVDSVKGRFTISRDNAKNTMYLQMNSLKPEDTAVYYCAANEVATMSGPDDYWGQGTQVTVSS
B13: DR943 (VHH)
VHH: QVQLVESGGGLVQAGGSLRLSCVASGRTVGYGMAWFRQAPGKQRDVVAAITWSGTSTYYPDSVKGRFTISRDNAKNTMYLQMSSLKPEDTAVYYCAAGSRRRVGVDVGGYDYWGQGTQVTVSS
B14: DR938 (VHH)
VHH: QVQLVESGGGLVQPGGSLRLSCTASGRPRTTYAMGWFRQAPGKEREIVAAISKAGGSTYVADSAKGRFAISKDNAKNTVYLQMNSLKPEDTAVYYCAARAGFAAQIFEYDYWGQGTLVTVSS
B15: DR953 (VHH)
VHH: QVQLVESGGGLVQAGDSLRLSCAASGPTFSTYAMAWFRQAPGKEREFVAAITQSGRTTYYEDSVKGRFTISKDNAKNTLYLQMNSLQPEDTAVYYCAARDLWSDSPDDWRIYSFWGQGTQVTVSS
B16: DR939 (VHH)
VHH: EVQLVESGGGLVQAGGSMRLSCANSGRTFGTYAMGWFRQSPGKERERVASIDRDGSMSYYADSVKGRFTISGDNAKNTVYLQMNSLKPEDTAVYYCAASRRAVISLQTVDYWGQGTQVTVSS
B17: DR944 (VHH)
VHH: QVQLVESGGGLVQAGDSLRLSCAASGRTFTFSTHNMGWFRQAPGKEREFVGGIMWTSRASYADSVKGRFTVSRDNAKNTVYLQMNSLKPEDTAVYYCAAAWYGNSGASYDYWGQGTQVTVSS
B18: DR940 (VHH)
VHH: EVQLVESGGRLVQTGGSLRLSCAASGRTFSNYAMGWFRQAPGKEREFVAAISWYSGNTYYADSVKGRFTISRDNAKNTMYLQMNSLKPEDTAVYYCAANQIATMISVGDYWGQGTLVTVSS
B19: DR952 (VHH)
VHH: QVQLVESGGGLVQAGGFLRLSCAASGRTFSSLAMAWFRQAPGKEREFVAAISRSGGSTDYADSVKGRFTISRDNAKSTLYLQMSSLKPEDTAVYYCAARDYSTLQYYNEYEYSDWGQGTLVTVSS
B20: DR942 (VHH)
VHH: QVQLVESGGGLVQAGGSLRLSCVASGRTFTGYAMGWFRQAPGKEREFVAVITWSGATTYYSASVKGRFTLSRDNAKNTVYLQMNSLKSEDTAVYYCAIRIRDGVSPENPNEYGYWGQGTQVTVSS
B21: DR937 (VHH)
VHH: QVQLVESGGGLVQPGGSLRLSCAASGRTFRSYSMGWFRQAPGKEREFVAAISWYSGTTYYADPVKGRFTISRDDAKNTLYLQMNSLKPEDTAVYYCAANEIATMESSNDYWGQGTQVTVSS
B22: DR945 (VHH)
VHH: LVESGGGLVQLVQAGGSLRLSCAASGRTFSGYNMGWFRQAPGKEREFVAAIAWAGSRTYYTDSVKGRFTISRDNAKNTMYLQMNTLRPEDTAVYYCAAHDETYYRLDRVDLYTHWGQGTQVTVSS
B23: DR949 (VHH)
VHH: QVQLVESGGGLVQAGGSLRLSCAASESILRFNVMSWLRQAPGKQRELVAVITSGGSTNYADSVKGRFTISRDNAKNTVYLQMNSLKPEDTAVYYCAADESGQYYWGQGTQVTVSS
B24: DR954 (VHH)
VHH: QVQLVESGGGLVQAGGSLRLSCAAARRTLHNFAMAWFRQAPGKEREFVAAISKGGGSADYADSVKGRFTISRDNAKNTVYLQMNSLKPEDTAVYYCAANDLASYSDSSYTSTSRYDYWGQGTQVTVSS
B25: DR958 (VHH)
VHH: QVQLVESGGGLVQAGDSLTLSCTASGRTFSGYNMGWFRQAPGKERDFVAAINWIGGATYYADSVKGRFTISRDNAKNTVYLQMNSLKPEDTAVYYCHRYSEKFYSGKDYYTRDYDYWGQGTQVTVSS
B26: DR929 (VHH)
VHH: QVQLVESGGGLVQAGGSLRLSCVASGRTFSSYAMGWFRQTPGKEREFVSAISRGGGSTDYADSVKGRFTISRDNAKNTVYLQMNNLKSEDTAVYYCALRAYSGRYYQFLEYDYWGQGTQVTVSS

Each binder was assayed against T1, extracellular domain of hIFNgR2 (assay: phage biopanning and periplasmic extract ELISA (PE-ELISA)).
Procedure: Upon completion of the biopanning of Example 3, three 96-well plates of individual phage clones were isolated in order to perform periplasmic extract ELISA (PE-ELISA) on IFNgR2 coated plates to identify positive VHH binders that selectively bound IFNgR2. A 96-well plate was coated with IFNgR2 and PBS under the same conditions. Next, wells were blocked at 37° C. for 1 h. Then, 100 μl of extracted antibodies was added to each well and incubated for 1 h. Subsequently, 100 μl of anti-tag polyclonal antibody conjugated to HRP was added to each well and incubated at 37° C. for 1 h. Plates were developed with TMB substrate. The reaction was stopped by the addition of H2SO4. Absorbance at 450 nm was read on a microtiter plate reader. Antibodies with absorbance of the antigen-coated well at least threefold greater than PBS-coated control were considered to provide specific binding to IFNgR2. Positive clones were sequenced, and sequences analyzed to identify unique clonotypes
B1: binds. B2: binds. B3: binds. B4: binds. B5: binds. B6: binds. B7: binds. B8: binds. B9: binds. B10: binds. B11: binds. B12: binds. B13: binds. B14: binds. B15: binds. B16: binds. B17: binds. B18: binds. B19: binds. B20: binds. B21: binds. B22: binds. B23: binds. B24: binds. B25: binds. B26: binds.

Biological target: T2, extracellular domain of mIFNgR2
Experiment: flow cytometry, cross-reactivity
B1: binds. B2: binds. B3: binds. B4: binds. B5: binds. B6: binds. B7: binds. B8: binds. B9: binds. B10: binds. B11: binds. B12: binds. B13: binds. B14: binds. B15: binds. B17: binds. B18: binds. B19: binds. B20: binds. B21: binds. B22: binds. B23: binds. B24: binds. B25: binds. B26: binds.
